Source: US20230357348A1 (AstraZeneca / MedImmune, published 2023)
Starred links: 1 amine or outer side, 2 acyl side, 3 side chain; linkers in the order of their positions; H or OH if unused. Non-standard residues stand in square brackets, D forms with d. Groups on a side chain read outwards from the residue. No end group written: not given here. *: point of attachment. C20 diacid = O=C(O)CCCCCCCCCCCCCCCCCCC(=O)*; C18 diacid = O=C(O)CCCCCCCCCCCCCCCCC(=O)*; γGlu = O=C(O)[C@H](CCC(=O)[*:2])N[*:1]; αMeF = C[C@](N)(Cc1ccccc1)C(=O)O; AEEA = NCCOCCOCC(=O)O; Aib = CC(C)(N)C(=O)O

B1: Peptide 142 (peptide)
peptide: H[Aib]QGTFTSDVSK[αMeF]LDSK([AEEA-AEEA-γGlu-C18 diacid])RARDFVAWLLE[Aib]G-OH
modifications: N-terminus assumed
SMILES: CC(C)C[C@H](NC(=O)[C@H](Cc1c[nH]c2ccccc12)NC(=O)[C@H](C)NC(=O)[C@@H](NC(=O)[C@H](Cc1ccccc1)NC(=O)[C@H](CC(=O)O)NC(=O)[C@H](CCCNC(=N)N)NC(=O)[C@H](C)NC(=O)[C@H](CCCNC(=N)N)NC(=O)[C@H](CCCCNC(=O)COCCOCCNC(=O)COCCOCCNC(=O)CC[C@H](NC(=O)CCCCCCCCCCCCCCCCC(=O)O)C(=O)O)NC(=O)[C@H](CO)NC(=O)[C@H](CC(=O)O)NC(=O)[C@H](CC(C)C)NC(=O)[C@](C)(Cc1ccccc1)NC(=O)[C@H](CCCCN)NC(=O)[C@H](CO)NC(=O)[C@@H](NC(=O)[C@H](CC(=O)O)NC(=O)[C@H](CO)NC(=O)[C@@H](NC(=O)[C@H](Cc1ccccc1)NC(=O)[C@@H](NC(=O)CNC(=O)[C@H](CCC(N)=O)NC(=O)C(C)(C)NC(=O)[C@@H](N)Cc1c[nH]cn1)[C@@H](C)O)[C@@H](C)O)C(C)C)C(C)C)C(=O)N[C@@H](CC(C)C)C(=O)N[C@@H](CCC(=O)O)C(=O)NC(C)(C)C(=O)NCC(=O)O
B2: Peptide 141 (peptide)
peptide: H[Aib]QGTFTSDVSK[αMeF]LDSK([AEEA-AEEA-γGlu-C18 diacid])RAQDFVAWLLE[Aib]G-OH
modifications: N-terminus assumed
SMILES: CC(C)C[C@H](NC(=O)[C@H](Cc1c[nH]c2ccccc12)NC(=O)[C@H](C)NC(=O)[C@@H](NC(=O)[C@H](Cc1ccccc1)NC(=O)[C@H](CC(=O)O)NC(=O)[C@H](CCC(N)=O)NC(=O)[C@H](C)NC(=O)[C@H](CCCNC(=N)N)NC(=O)[C@H](CCCCNC(=O)COCCOCCNC(=O)COCCOCCNC(=O)CC[C@H](NC(=O)CCCCCCCCCCCCCCCCC(=O)O)C(=O)O)NC(=O)[C@H](CO)NC(=O)[C@H](CC(=O)O)NC(=O)[C@H](CC(C)C)NC(=O)[C@](C)(Cc1ccccc1)NC(=O)[C@H](CCCCN)NC(=O)[C@H](CO)NC(=O)[C@@H](NC(=O)[C@H](CC(=O)O)NC(=O)[C@H](CO)NC(=O)[C@@H](NC(=O)[C@H](Cc1ccccc1)NC(=O)[C@@H](NC(=O)CNC(=O)[C@H](CCC(N)=O)NC(=O)C(C)(C)NC(=O)[C@@H](N)Cc1c[nH]cn1)[C@@H](C)O)[C@@H](C)O)C(C)C)C(C)C)C(=O)N[C@@H](CC(C)C)C(=O)N[C@@H](CCC(=O)O)C(=O)NC(C)(C)C(=O)NCC(=O)O
B3: Peptide 145 (peptide)
peptide: H[Aib]QGTFTSDVSK[αMeF]LDSK([AEEA-AEEA-γGlu-C18 diacid])RAQDFVRWLASRGI-OH
modifications: N-terminus assumed
SMILES: CC[C@H](C)[C@H](NC(=O)CNC(=O)[C@H](CCCNC(=N)N)NC(=O)[C@H](CO)NC(=O)[C@H](C)NC(=O)[C@H](CC(C)C)NC(=O)[C@H](Cc1c[nH]c2ccccc12)NC(=O)[C@H](CCCNC(=N)N)NC(=O)[C@@H](NC(=O)[C@H](Cc1ccccc1)NC(=O)[C@H](CC(=O)O)NC(=O)[C@H](CCC(N)=O)NC(=O)[C@H](C)NC(=O)[C@H](CCCNC(=N)N)NC(=O)[C@H](CCCCNC(=O)COCCOCCNC(=O)COCCOCCNC(=O)CC[C@H](NC(=O)CCCCCCCCCCCCCCCCC(=O)O)C(=O)O)NC(=O)[C@H](CO)NC(=O)[C@H](CC(=O)O)NC(=O)[C@H](CC(C)C)NC(=O)[C@](C)(Cc1ccccc1)NC(=O)[C@H](CCCCN)NC(=O)[C@H](CO)NC(=O)[C@@H](NC(=O)[C@H](CC(=O)O)NC(=O)[C@H](CO)NC(=O)[C@@H](NC(=O)[C@H](Cc1ccccc1)NC(=O)[C@@H](NC(=O)CNC(=O)[C@H](CCC(N)=O)NC(=O)C(C)(C)NC(=O)[C@@H](N)Cc1c[nH]cn1)[C@@H](C)O)[C@@H](C)O)C(C)C)C(C)C)C(=O)O
B4: Peptide 138 (peptide)
peptide: H[Aib]QGTFTSDVSK[αMeF]LDSK([γGlu-γGlu-AEEA-AEEA-γGlu-γGlu-C18 diacid])RAQDFVRWLLE[Aib]G-OH
modifications: N-terminus assumed
SMILES: CC(C)C[C@H](NC(=O)[C@H](Cc1c[nH]c2ccccc12)NC(=O)[C@H](CCCNC(=N)N)NC(=O)[C@@H](NC(=O)[C@H](Cc1ccccc1)NC(=O)[C@H](CC(=O)O)NC(=O)[C@H](CCC(N)=O)NC(=O)[C@H](C)NC(=O)[C@H](CCCNC(=N)N)NC(=O)[C@H](CCCCNC(=O)CC[C@H](NC(=O)CC[C@H](NC(=O)COCCOCCNC(=O)COCCOCCNC(=O)CC[C@H](NC(=O)CC[C@H](NC(=O)CCCCCCCCCCCCCCCCC(=O)O)C(=O)O)C(=O)O)C(=O)O)C(=O)O)NC(=O)[C@H](CO)NC(=O)[C@H](CC(=O)O)NC(=O)[C@H](CC(C)C)NC(=O)[C@](C)(Cc1ccccc1)NC(=O)[C@H](CCCCN)NC(=O)[C@H](CO)NC(=O)[C@@H](NC(=O)[C@H](CC(=O)O)NC(=O)[C@H](CO)NC(=O)[C@@H](NC(=O)[C@H](Cc1ccccc1)NC(=O)[C@@H](NC(=O)CNC(=O)[C@H](CCC(N)=O)NC(=O)C(C)(C)NC(=O)[C@@H](N)Cc1c[nH]cn1)[C@@H](C)O)[C@@H](C)O)C(C)C)C(C)C)C(=O)N[C@@H](CC(C)C)C(=O)N[C@@H](CCC(=O)O)C(=O)NC(C)(C)C(=O)NCC(=O)O
B5: Peptide 143 (peptide)
peptide: H[Aib]QGTFTSDVSK[αMeF]LDSK([AEEA-AEEA-γGlu-C18 diacid])RARDFVQWLLE[Aib]G-OH
modifications: N-terminus assumed
SMILES: CC(C)C[C@H](NC(=O)[C@H](Cc1c[nH]c2ccccc12)NC(=O)[C@H](CCC(N)=O)NC(=O)[C@@H](NC(=O)[C@H](Cc1ccccc1)NC(=O)[C@H](CC(=O)O)NC(=O)[C@H](CCCNC(=N)N)NC(=O)[C@H](C)NC(=O)[C@H](CCCNC(=N)N)NC(=O)[C@H](CCCCNC(=O)COCCOCCNC(=O)COCCOCCNC(=O)CC[C@H](NC(=O)CCCCCCCCCCCCCCCCC(=O)O)C(=O)O)NC(=O)[C@H](CO)NC(=O)[C@H](CC(=O)O)NC(=O)[C@H](CC(C)C)NC(=O)[C@](C)(Cc1ccccc1)NC(=O)[C@H](CCCCN)NC(=O)[C@H](CO)NC(=O)[C@@H](NC(=O)[C@H](CC(=O)O)NC(=O)[C@H](CO)NC(=O)[C@@H](NC(=O)[C@H](Cc1ccccc1)NC(=O)[C@@H](NC(=O)CNC(=O)[C@H](CCC(N)=O)NC(=O)C(C)(C)NC(=O)[C@@H](N)Cc1c[nH]cn1)[C@@H](C)O)[C@@H](C)O)C(C)C)C(C)C)C(=O)N[C@@H](CC(C)C)C(=O)N[C@@H](CCC(=O)O)C(=O)NC(C)(C)C(=O)NCC(=O)O
B6: Peptide 144 (peptide)
peptide: H[Aib]QGTFTSDVSK[αMeF]LDSK([γGlu-γGlu-AEEA-AEEA-γGlu-γGlu-C18 diacid])RARDFVRWLLE[Aib]G-OH
modifications: N-terminus assumed
SMILES: CC(C)C[C@H](NC(=O)[C@H](Cc1c[nH]c2ccccc12)NC(=O)[C@H](CCCNC(=N)N)NC(=O)[C@@H](NC(=O)[C@H](Cc1ccccc1)NC(=O)[C@H](CC(=O)O)NC(=O)[C@H](CCCNC(=N)N)NC(=O)[C@H](C)NC(=O)[C@H](CCCNC(=N)N)NC(=O)[C@H](CCCCNC(=O)CC[C@H](NC(=O)CC[C@H](NC(=O)COCCOCCNC(=O)COCCOCCNC(=O)CC[C@H](NC(=O)CC[C@H](NC(=O)CCCCCCCCCCCCCCCCC(=O)O)C(=O)O)C(=O)O)C(=O)O)C(=O)O)NC(=O)[C@H](CO)NC(=O)[C@H](CC(=O)O)NC(=O)[C@H](CC(C)C)NC(=O)[C@](C)(Cc1ccccc1)NC(=O)[C@H](CCCCN)NC(=O)[C@H](CO)NC(=O)[C@@H](NC(=O)[C@H](CC(=O)O)NC(=O)[C@H](CO)NC(=O)[C@@H](NC(=O)[C@H](Cc1ccccc1)NC(=O)[C@@H](NC(=O)CNC(=O)[C@H](CCC(N)=O)NC(=O)C(C)(C)NC(=O)[C@@H](N)Cc1c[nH]cn1)[C@@H](C)O)[C@@H](C)O)C(C)C)C(C)C)C(=O)N[C@@H](CC(C)C)C(=O)N[C@@H](CCC(=O)O)C(=O)NC(C)(C)C(=O)NCC(=O)O
B7: Peptide 137 (peptide)
peptide: H[Aib]QGTFTSDVSK[αMeF]LDSK([γGlu-γGlu-AEEA-AEEA-γGlu-γGlu-C18 diacid])RAQDFVRWLLEG[Aib]-OH
modifications: N-terminus assumed
SMILES: CC(C)C[C@H](NC(=O)[C@H](CC(C)C)NC(=O)[C@H](Cc1c[nH]c2ccccc12)NC(=O)[C@H](CCCNC(=N)N)NC(=O)[C@@H](NC(=O)[C@H](Cc1ccccc1)NC(=O)[C@H](CC(=O)O)NC(=O)[C@H](CCC(N)=O)NC(=O)[C@H](C)NC(=O)[C@H](CCCNC(=N)N)NC(=O)[C@H](CCCCNC(=O)CC[C@H](NC(=O)CC[C@H](NC(=O)COCCOCCNC(=O)COCCOCCNC(=O)CC[C@H](NC(=O)CC[C@H](NC(=O)CCCCCCCCCCCCCCCCC(=O)O)C(=O)O)C(=O)O)C(=O)O)C(=O)O)NC(=O)[C@H](CO)NC(=O)[C@H](CC(=O)O)NC(=O)[C@H](CC(C)C)NC(=O)[C@](C)(Cc1ccccc1)NC(=O)[C@H](CCCCN)NC(=O)[C@H](CO)NC(=O)[C@@H](NC(=O)[C@H](CC(=O)O)NC(=O)[C@H](CO)NC(=O)[C@@H](NC(=O)[C@H](Cc1ccccc1)NC(=O)[C@@H](NC(=O)CNC(=O)[C@H](CCC(N)=O)NC(=O)C(C)(C)NC(=O)[C@@H](N)Cc1c[nH]cn1)[C@@H](C)O)[C@@H](C)O)C(C)C)C(C)C)C(=O)N[C@@H](CCC(=O)O)C(=O)NCC(=O)NC(C)(C)C(=O)O

How the values were obtained:
[1] = molecular target: human GLP-1 receptor (hGLP-1R) (human, UniProt P43220 24-463); test: cell-based or functional assay
[2] = molecular target: human glucagon receptor (hGCGR) (human, UniProt P47871 26-477); test: cell-based or functional assay
Chain of human glucagon receptor (hGCGR) (P47871 26-477): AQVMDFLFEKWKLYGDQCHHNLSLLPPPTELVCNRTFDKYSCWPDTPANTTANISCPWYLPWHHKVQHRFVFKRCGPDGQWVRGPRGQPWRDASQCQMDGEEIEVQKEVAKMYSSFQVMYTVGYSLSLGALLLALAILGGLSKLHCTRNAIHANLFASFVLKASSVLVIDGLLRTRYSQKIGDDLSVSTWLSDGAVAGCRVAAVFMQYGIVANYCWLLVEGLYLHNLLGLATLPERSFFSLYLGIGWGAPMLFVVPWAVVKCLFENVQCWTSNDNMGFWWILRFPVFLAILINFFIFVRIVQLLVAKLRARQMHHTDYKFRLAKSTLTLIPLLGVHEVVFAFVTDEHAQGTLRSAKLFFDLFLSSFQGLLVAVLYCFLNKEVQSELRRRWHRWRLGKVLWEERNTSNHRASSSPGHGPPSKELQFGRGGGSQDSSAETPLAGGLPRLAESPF

| Binder | hGLP-1R EC50 (pM) [1] [pM] | hGluc-R EC50 (pM) [2] [pM] |
| --- | --- | --- |
| B1 | 59.4 | 108 |
| B2 | 264 | 392 |
| H[Aib]QGTFTSDVSK[αMeF]LDSK([γGlu-γGlu-AEEA-AEEA-γGlu-γGlu-C20 diacid])RAQDFVRWLLE[Aib]G-OH [Peptide 139] | 630 | 984 |
| B3 | 22.6 | 4590 |
| B4 | 104 | 184 |
| B5 | 19.1 | 32.6 |
| B6 | 45.2 | 702 |
| B7 | 143 | 268 |
